Assay [1] concerns the target MERS-CoV spike glycoprotein S1 N-terminal domain (residues 18-353), wild type (MERS-CoV, EMC strain (NTD sequence …, UniProt K9N5Q8)). Nature of the assay: cell-based or functional assay.
Assay [2] has as its target recombinant receptor-binding domain of MERS-CoV S glycoprotein (residues 367-606) (MERS-CoV, EMC/2012 (strain used …, UniProt K0BRG7)). Nature of the assay: ELISA. To be noted: both partners purified. Background: An ELISA detects its analyte on a solid surface through an enzyme-linked reagent.

MERS-CoV spike glycoprotein S1 N-terminal domain (residues 18-353), wild type (MERS-CoV, EMC strain, sequence (K9N5Q8 18-353): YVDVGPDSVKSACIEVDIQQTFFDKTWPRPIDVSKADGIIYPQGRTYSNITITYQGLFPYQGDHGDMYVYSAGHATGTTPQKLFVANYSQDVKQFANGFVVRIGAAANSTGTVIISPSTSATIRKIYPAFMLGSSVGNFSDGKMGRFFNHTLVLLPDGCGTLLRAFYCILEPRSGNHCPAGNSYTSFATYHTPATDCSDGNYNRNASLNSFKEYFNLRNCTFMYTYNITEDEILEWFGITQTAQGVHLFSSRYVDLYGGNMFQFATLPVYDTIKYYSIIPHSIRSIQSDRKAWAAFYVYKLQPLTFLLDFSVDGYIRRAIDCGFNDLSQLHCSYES

B1: mouse monoclonal antibody 7D10 (antibody, V domains shown)
VH: EVQLVESGAEVVKPGASVKMSCKASGYPFTSYNIHWIKQTPGQGLEWIGAIYPGNGDTSYTQKFKVKATLTSDKSSSTAYMQLSSLTSEDSAVYFCARYGNYPSYAMDYWGQGTSVTVSS
VL: DIVMTQSPASLTVSLGQRATISCRASKSVSASGYNYLHWYQQRPGQPPKLLIYLAFNLESGVPARFNGSGSGTDFTLNIHPVEEEDAATYYCQHSRDLPFTFGSGTKLEIK
B1: in assay [1], the “IC50 of neutralisation of pseudotyped MERS-CoV on Huh7 cells (luciferase)” value is about 0.18 mg/L. Further, the binding result in assay [2] is “no binding (tested: 4 μg mL^−1)”.

B2: 7D10 scFv (VL, triple GGGS linker, VH) (scFv, V domains shown)
VH: EVQLVESGAEVVKPGASVKMSCKASGYPFTSYNIHWIKQTPGQGLEWIGAIYPGNGDTSYTQKFKVKATLTSDKSSSTAYMQLSSLTSEDSAVYFCARYGNYPSYAMDYWGQGTSVTVSS
VL: DIVMTQSPASLTVSLGQRATISCRASKSVSASGYNYLHWYQQRPGQPPKLLIYLAFNLESGVPARFNGSGSGTDFTLNIHPVEEEDAATYYCQHSRDLPFTFGSGTKLEIK
Consider B2, for which the “IC50 of inhibition of cell entry of pseudotyped MERS-CoV (Huh7 cells)” value in assay [1] stood at 0.28 mg/L.

The record behind these values is publication PMC6624210 (Nature Communications, 2019).
